# Experimental data: US20070150973A1
# How the values were obtained:
# [1] = target: FKBP×3-VP16 fusion protein (human; Herpes Simplex Virus) (UniProt P62942); assay: cell-based or functional assay
# [2] = target: FKBP×3-p65 fusion protein (human) (UniProt P62942); assay: cell-based or functional assay
substance,measurement,setting,value
ZFHD1-FKBP×3 fusion protein (from UniProt P08046 333-390; P14859 378-439; P62942 2-108; P62942 2-108; P62942 2-108),FK1012 concentration at peak SEAP activation,[1],100 nM
same,FK1012 concentration at peak SEAP activation,[2],100 nM
